Data on 20 molecules can be found in patent publication US20080286277A1 (GLYCART BIOTECHNOLOGY, published 2008).

One may read the EC50 as the concentration that produces a half-maximal response. Low values mean higher potency in that assay, high ones lower potency in that assay.

For assay [1], the target named is T1, human epidermal growth factor receptor (EGFR) (human, UniProt P00533 25-1210).
T1 construct: whole, on cells; also called HER-1; ErbB1
Nature of the assay: flow cytometry on A431 cells.
Description: The purified, monomeric humanized antibody variants were tested for binding to human epidermal growth factor receptor (EGFR, also referred to in the literature as HER-1 or ErbB1) on the A431 human epidermal cell line, using a flow cytometry-based assay. 200,000 cells (e.g., from human A431 cell line) in 180 μl FACS buffer (PBS containing 2% FCS and 5 mM EDTA) were transferred to 5 ml polystyrene tubes and 20 μl 10 fold concentrated anti-EGFR antibody (primary antibody) samples (1-5000 ng/ml final concentration) or PBS only were added. After gently mixing the samples, the tubes were incubated at 4° C. for 30 min in the dark. Subsequently, samples were washed twice with FACS buffer and pelleted at 300×g for 3 min. Supernatant was aspirated off and cells were taken up in 50 μl FACS buffer and 2 μl secondary antibody (anti-Fc-specific F(ab′)2-FITC fragments (Jackson Immuno Research Laboratories, USA)) was added and the tubes were incubated at 4° C. for 30 min. Samples were washed twice with FACS buffer and taken up in 500 μl of FACS buffer for analysis by Flow Cytometry. Binding was determined by plotting the geometric mean fluorescence against the antibody concentrations.

Assay [2] deals with T1, human epidermal growth factor receptor …. Nature of the assay: flow cytometry on A431 cells, light chain paired with I-HHD. Background: A flow cytometer gives signals particle by particle.

B1: humanized ICR62 antibody I-HLA2/I-KC (antibody, human IgG1, V domains shown)
VH: QVQLVQSGAEVKKPGASVKVSCKASGFTFTDYYMHWVRQAPGQGLEWMGWINPNSGYSTYNEKFQGQVTISADKSISTAYLQWSSLKASDTAMYYCARLSPGGYYVMDAWGQGTTVTVSS
VL: DIQMTQSPSSLSASVGDRVTITCRASQGINNYLNWYQQKPGKAPKRLIYNTNNLQTGVPSRFSGSGSGTEFTLTISSLQPEDFATYYCLQHNSFPTFGQGTKLEIKR
With B1, the EC50 in assay [1] was roughly 0.3 µg/mL.

B2: humanized ICR62 antibody I-HLA5/I-KC (antibody, human IgG1, V domains shown)
VH: QMQLVQSGPEVKKPGTSVKVSCKASGFTFTDYYMHWVRQAPGQGLEWMGWINPNSGYSTYSPSFQGQVTISADKSISTAYLQWSSLKASDTAMYYCARLSPGGYYVMDAWGQGTTVTVSS
VL: DIQMTQSPSSLSASVGDRVTITCRASQGINNYLNWYQQKPGKAPKRLIYNTNNLQTGVPSRFSGSGSGTEFTLTISSLQPEDFATYYCLQHNSFPTFGQGTKLEIKR
In the case of B2, the “EC50 fold increase relative to ch-ICR62, I-HLA1 and I-HLA2” value (“EC50 fold increase relative to ch-ICR62” for short) in assay [1] turned out to be 2 fold.

B3: humanized ICR62 antibody I-HLA1/I-KC (antibody, human IgG1, V domains shown)
VH: QVQLVQSGAEVKKPGASVKVSCKASGFTFTDYYMHWVRQAPGQGLEWMGWINPNSGYSTYSPSFQGQVTISADKSISTAYLQWSSLKASDTAMYYCARLSPGGYYVMDAWGQGTTVTVSS
VL: DIQMTQSPSSLSASVGDRVTITCRASQGINNYLNWYQQKPGKAPKRLIYNTNNLQTGVPSRFSGSGSGTEFTLTISSLQPEDFATYYCLQHNSFPTFGQGTKLEIKR
On to B3, for which the EC50 in assay [1] is roughly 0.3 µg/mL.

B4: humanized ICR62 antibody I-HHC/I-KB (antibody, human IgG1, V domains shown)
VH: QVQLVQSGAEVKKPGSSVKVSCKGSGFTFTDYKIHWVRQAPGQGLEWMGYFNPNSGYSTYNEKFKSRVTITADKSTSTAYMELSSLRSEDTAVYYCARLSPGGYYVMDAWGQGTTVTVSS
VL: DIQMTQSPSSLSASVGDRVTITCKASQNINNYLNWYQQKPGKAPKRLIYNTNNLQTGVPSRFSGSGSGTEYTLTISSLQPEDFATYYCLQHNSFPTFGQGTKLEIKR
notes: I-HHC was also paired with I-KA and the chimeric light chain
Consider B4, for which, in assay [1], the binding result was “binds”.

B5: humanized ICR62 antibody I-HHD/I-KC3 (antibody, human IgG1, V domains shown)
VH: QVQLVQSGAEVKKPGSSVKVSCKASGFTFTDYKIHWVRQAPGQGLEWMGYFNPNSGYSTYAQKFQGRVTITADKSTSTAYMELSSLRSEDTAVYYCARLSPGGYYVMDAWGQGTTVTVSS
VL: DIQMTQSPSSLSASVGDRVTITCRASQGINNYLGWYQQKPGKAPKRLIYNTNNLQTGVPSRFSGSGSGTEFTLTISSLQPEDFATYYCLQHNSFPTFGQGTKLEIKR
For B5, the “EC50 fold increase relative to I-KC (paired with I-HHD)” value in assay [1] is 10 fold.

B6: humanized ICR62 antibody I-HHB/I-KC (not glycoengineered) (antibody, V domains shown)
VH: QVQLVQSGAEVKKPGSSVKVSCKGSGFTFTDYKIHWVRQAPGQGLEWMGYFNPNSGYSTYAQKFQGRVTITADKSTSTAYMELSSLRSEDTAVYYCARLSPGGYYVMDAWGQGTTVTVSS
VL: DIQMTQSPSSLSASVGDRVTITCRASQGINNYLNWYQQKPGKAPKRLIYNTNNLQTGVPSRFSGSGSGTEFTLTISSLQPEDFATYYCLQHNSFPTFGQGTKLEIKR
notes: also called I-HHB/KC
For B6, the binding result in assay [1] is given as “binds”.

B7: humanized ICR62 antibody I-HHD-8/I-KC (antibody, human IgG1, V domains shown)
VH: QVQLVQSGAEVKKPGSSVKVSCKASGFTFTDYKIHWVRQAPGQGLEWMGYFNPNSGTSTYAQKFQGRVTITADKSTSTAYMELSSLRSEDTAVYYCARLSPGGYYVMDAWGQGTTVTVSS
VL: DIQMTQSPSSLSASVGDRVTITCRASQGINNYLNWYQQKPGKAPKRLIYNTNNLQTGVPSRFSGSGSGTEFTLTISSLQPEDFATYYCLQHNSFPTFGQGTKLEIKR
In the case of B7, the “EC50 fold increase relative to I-HHD parent construct” value in assay [1] turned out to be 10 fold.

B8: humanized ICR62 antibody I-HLA3/I-KC (antibody, human IgG1, V domains shown)
VH: QVQLVQSGAEVKKPGASVKVSCKASGYTFTDYYMHWVRQAPGQGLEWMGWINPNSGYSTYSPSFQGQVTISADKSISTAYLQWSSLKASDTAMYYCARLSPGGYYVMDAWGQGTTVTVSS
VL: DIQMTQSPSSLSASVGDRVTITCRASQGINNYLNWYQQKPGKAPKRLIYNTNNLQTGVPSRFSGSGSGTEFTLTISSLQPEDFATYYCLQHNSFPTFGQGTKLEIKR
B8: the “EC50 fold increase relative to ch-ICR62” value in assay [1] was 2 fold.

B9: humanized ICR62 antibody I-HLA/I-KB (antibody, human IgG1, V domains shown)
VH: QVQLVQSGAEVKKPGASVKVSCKASGFTFTDYYMHWVRQAPGQGLEWMGWINPNSGYSTYAQKFQGRVTMTADTSISTAYMELSRLRSDDTAVYYCARLSPGGYYVMDAWGQGTTVTVSS
VL: DIQMTQSPSSLSASVGDRVTITCKASQNINNYLNWYQQKPGKAPKRLIYNTNNLQTGVPSRFSGSGSGTEYTLTISSLQPEDFATYYCLQHNSFPTFGQGTKLEIKR
As for B9, in assay [1], the binding result was “binds”.

B10: humanized ICR62 antibody I-HLA4/I-KC (antibody, human IgG1, V domains shown)
VH: QVQLVQSGAEVKKPGASVKVSCKASGYTFTDYYMHWVRQAPGQGLEWMGWINPNSGYSTYNEKFQGQVTISADKSISTAYLQWSSLKASDTAMYYCARLSPGGYYVMDAWGQGTTVTVSS
VL: DIQMTQSPSSLSASVGDRVTITCRASQGINNYLNWYQQKPGKAPKRLIYNTNNLQTGVPSRFSGSGSGTEFTLTISSLQPEDFATYYCLQHNSFPTFGQGTKLEIKR
Take B10: the “EC50 fold increase relative to ch-ICR62” value in assay [1] turned out to be 2 fold.

B11: humanized ICR62 antibody I-HHF/I-KC (antibody, human IgG1, V domains shown)
VH: QVQLVQSGAEVKKPGSSVKVSCKGSGFTFTDYKIHWVRQAPGQGLEWMGYFNPNSGYSNYAQKFQGRVTITADKSTSTAYMELSSLRSEDTAVYYCARLSPGGYYVMDAWGQGTTVTVSS
VL: DIQMTQSPSSLSASVGDRVTITCRASQGINNYLNWYQQKPGKAPKRLIYNTNNLQTGVPSRFSGSGSGTEFTLTISSLQPEDFATYYCLQHNSFPTFGQGTKLEIKR
In the case of B11, the binding result in assay [1] is “binds”.

B12: humanized ICR62 antibody I-HHD-10/I-KC (antibody, human IgG1, V domains shown)
VH: QVQLVQSGAEVKKPGSSVKVSCKASGFTFTDYKIHWVRQAPGQGLEWMGYFNPNSGYSTYAQKFQGRVTITADKSTSTAYMELSSLRSEDTAVYYCARLSPGGYYGMDAWGQGTTVTVSS
VL: DIQMTQSPSSLSASVGDRVTITCRASQGINNYLNWYQQKPGKAPKRLIYNTNNLQTGVPSRFSGSGSGTEFTLTISSLQPEDFATYYCLQHNSFPTFGQGTKLEIKR
As to B12, the “EC50 fold increase relative to I-HHD parent construct” value in assay [1] worked out at 10 fold.

B13: humanized ICR62 antibody I-HHD/I-KC1 (antibody, human IgG1, V domains shown)
VH: QVQLVQSGAEVKKPGSSVKVSCKASGFTFTDYKIHWVRQAPGQGLEWMGYFNPNSGYSTYAQKFQGRVTITADKSTSTAYMELSSLRSEDTAVYYCARLSPGGYYVMDAWGQGTTVTVSS
VL: DIQMTQSPSSLSASVGDRVTITCRASQGIRNYLNWYQQKPGKAPKRLIYNTNNLQTGVPSRFSGSGSGTEFTLTISSLQPEDFATYYCLQHNSFPTFGQGTKLEIKR
For B13, the binding result in assay [2] is listed as “binds”.

B14: humanized ICR62 antibody I-HLA9/I-KC (antibody, human IgG1, V domains shown)
VH: EVQLVQSGAEVKKPGESLKISCKGSGYSFTDYKIHWVRQAPGQGLEWMGYFNPNSGYSTYAQKFQGRVTITADKSTSTAYMELSSLRSEDTAVYYCARLSPGGYYVMDAWGQGTTVTVSS
VL: DIQMTQSPSSLSASVGDRVTITCRASQGINNYLNWYQQKPGKAPKRLIYNTNNLQTGVPSRFSGSGSGTEFTLTISSLQPEDFATYYCLQHNSFPTFGQGTKLEIKR
In the case of B14, the binding result in assay [1] is reported as “binds”.

B15: humanized ICR62 antibody I-HLA8/I-KC (antibody, human IgG1, V domains shown)
VH: QMQLVQSGPEVKKPGTSVKVSCKASGFTFTDYKIHWVRQAPGQGLEWMGYFNPNSGYSTYAQKFQGRVTITADKSTSTAYMELSSLRSEDTAVYYCARLSPGGYYVMDAWGQGTTVTVSS
VL: DIQMTQSPSSLSASVGDRVTITCRASQGINNYLNWYQQKPGKAPKRLIYNTNNLQTGVPSRFSGSGSGTEFTLTISSLQPEDFATYYCLQHNSFPTFGQGTKLEIKR
Turning to B15, in assay [1], the “EC50 fold decrease relative to ch-ICR62” value is 2 fold.

B16: humanized ICR62 antibody I-HLA6/I-KC (antibody, human IgG1, V domains shown)
VH: QMQLVQSGPEVKKPGTSVKVSCKASGFTFTDYYMHWVRQAPGQGLEWMGWINPNSGYSTYNEKFQGQVTISADKSISTAYLQWSSLKASDTAMYYCARLSPGGYYVMDAWGQGTTVTVSS
VL: DIQMTQSPSSLSASVGDRVTITCRASQGINNYLNWYQQKPGKAPKRLIYNTNNLQTGVPSRFSGSGSGTEFTLTISSLQPEDFATYYCLQHNSFPTFGQGTKLEIKR
In the case of B16, in assay [1], the “EC50 fold increase relative to ch-ICR62” value was 2 fold.

B17: humanized ICR62 antibody I-HHG/I-KC (antibody, human IgG1, V domains shown)
VH: QVQLVQSGAEVKKPGSSVKVSCKGSGFTFTDYKIHWVRQAPGQGLEWMGYFNPNSGYATYAQKFQGRVTITADKSTSTAYMELSSLRSEDTAVYYCARLSPGGYYVMDAWGQGTTVTVSS
VL: DIQMTQSPSSLSASVGDRVTITCRASQGINNYLNWYQQKPGKAPKRLIYNTNNLQTGVPSRFSGSGSGTEFTLTISSLQPEDFATYYCLQHNSFPTFGQGTKLEIKR
On to B17, for which, in assay [1], the binding result is reported as “binds”.

B18: humanized ICR62 antibody I-HLA7/I-KC (antibody, human IgG1, V domains shown)
VH: QMQLVQSGPEVKKPGTSVKVSCKASGFTFTDYKIHWVRQARGQRLEWIGWINPNSGYSTYNEKFQGQVTISADKSISTAYLQWSSLKASDTAMYYCARLSPGGYYVMDAWGQGTTVTVSS
VL: DIQMTQSPSSLSASVGDRVTITCRASQGINNYLNWYQQKPGKAPKRLIYNTNNLQTGVPSRFSGSGSGTEFTLTISSLQPEDFATYYCLQHNSFPTFGQGTKLEIKR
B18: the binding result in assay [1] is listed as “binds”.

B19: humanized ICR62 antibody I-HLA/I-KA (antibody, human IgG1, V domains shown)
VH: QVQLVQSGAEVKKPGASVKVSCKASGFTFTDYYMHWVRQAPGQGLEWMGWINPNSGYSTYAQKFQGRVTMTADTSISTAYMELSRLRSDDTAVYYCARLSPGGYYVMDAWGQGTTVTVSS
VL: DIQMTQSPSSLSASVGDRVTITCRASQGINNYLNWYQQKPGKAPKRLIYNTNNLQTGVPSRFSGSGSGTEYTLTISSLQPEDFATYYCLQHNSFPTFGQGTKLEIKR
As for B19, the binding result in assay [1] is reported as “binds”.

B20: chimeric rat-human ICR62 antibody (antibody, human IgG1, V domains shown)
VH: QVNLLQSGAALVKPGASVKLSCKGSGFTFTDYKIHWVKQSHGKSLEWIGYFNPNSGYSTYNEKFKSKATLTADKSTDTAYMELTSLTSEDSATYYCTRLSPGGYYVMDAWGQGASVTVSS
VL: DIQMTQSPSFLSASVGDRVTINCKASQNINNYLNWYQQKLGEAPKRLIYNTNNLQTGIPSRFSGSGSGTDYTLTISSLQPEDFATYFCLQHNSFPTFGAGTKLELKR
notes: also called ch-ICR62; chimeric ICR62
As to B20, in assay [1], the 50% effective concentration (EC50) was roughly 0.3 µg/mL and the “EC50 fold lower relative to I-HLA4” value amounted to 2 fold.
